Experiment [1] deals with T1, rat GHS-R (GHS receptor) expressed on CHO-GHSR62 cells (rat, UniProt O08725 1-364). The experiment can be described thus: cell-based or functional assay.
Experiment [2] deals with T1, rat GHS-R (GHS receptor) expressed on …. Description: cell-based or functional assay. The source holds these as a separate data set.
In experiment [3] the target is amino-terminal antibody (anti-[C-Cys]-rat ghrelin [1-11] antigen). Description: radioimmunoassay: inhibition of binding of radioisotope-labeled rat ghrelin to the amino-terminal antibody.
In experiment [4] the target is T1, rat GHS-R (GHS receptor) expressed on …. The experiment can be described thus: cell-based or functional assay. This is another data set of the same source.
The target is the same in experiment [5]. Description: cell-based or functional assay. This is another data set of the same source.
For experiment [6] the target is unchanged. Description: cell-based or functional assay. This is another data set of the same source.

The values below come from patent US20090170763A1 (KENJI KANGAWA, published 2009).

Where two headings read alike, the source gives them in different places. Square brackets hold non-standard residues; d marks the D form. Ends that are not written are not given here. * marks the point of attachment. NMeF = CN[C@@H](Cc1ccccc1)C(=O)O; NMeL = CN[C@@H](CC(C)C)C(=O)O; Octanoyl = CCCCCCCC(=O)*; Ava = NCCCCC(=O)O; Octyl = CCCCCCCC*

T1 sequence (O08725 whole entry): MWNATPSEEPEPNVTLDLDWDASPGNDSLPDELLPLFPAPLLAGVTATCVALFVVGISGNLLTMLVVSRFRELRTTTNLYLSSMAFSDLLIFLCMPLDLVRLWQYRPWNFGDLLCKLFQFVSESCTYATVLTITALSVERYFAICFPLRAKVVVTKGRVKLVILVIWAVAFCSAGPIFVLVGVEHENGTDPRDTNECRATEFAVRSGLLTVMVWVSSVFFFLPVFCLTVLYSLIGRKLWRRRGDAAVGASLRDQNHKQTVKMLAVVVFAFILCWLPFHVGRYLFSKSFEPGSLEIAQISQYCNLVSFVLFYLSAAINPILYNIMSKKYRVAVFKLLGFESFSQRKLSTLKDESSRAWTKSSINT

For the molecule [Ava]S(Octyl)[NMeF][NMeL]-NH2 [[N-Aminopentanoyl,Ser^3(Octyl),MePhe^4,MeLeu^5]-Ghrelin (3-5)-amide], the “Activity EC50” value in experiment [1] was found to be 82 nM. The molecule further had an EC50 in experiment [2] of 86 nM.

For GSS(Octanoyl)FLSPEHQKAQQRKESKKPPAKLQPR [rat ghrelin], in experiment [3], the cross-reactivity came out at 100%. Also, the “Ca-releasing activity EC50” value in experiment [4] amounted to 1.5 nM; in experiment [2], 2.5 nM. Further, the “EC50 value” in experiment [5] worked out at 1.5 nM.

Regarding GSK(Octanoyl)FLSPEHQRVQQRKESKKPPAKLQPR [[Lys^3(Octanoyl)]-hGhrelin], the “Activity EC50” value in experiment [6] amounted to 32 nM.

Broadly, the EC50 is the midpoint of the concentration-response curve.
